Test results published in patent US20070141652.

What was measured:
[1] = target: purified wild-type Xenopus TPX2 (GST tag removed)
[2] = target: ΔNTPX2 (Xenopus TPX2 with amino acid 1 to 40 deleted, GST tag removed)

B1: Xenopus Aurora A kinase (AurA, also called Eg2), endogenous in egg extracts (protein)
chain: MERAVKENHKPSNVKIFHPMTEGAKRIPVNQPQSTQFRPPGTAVSAQRILGPSNVPQRVLAQAQKPILSSQKPTTQIPLRPATQGHQSSKPQGPNENRNPQQTSHSSTPNVEKKGSTDQGKTSAVPKEEGKKKQWCLEDFEIGRPLGKGKFGNVYLARERESKFILALKVLFKSQLEKAGVEHQLRREVEIQSHLRHPNILRLYGYFHDASRVYLILDYAPGGELFRELQKCTRFDDQRSAMYIKQLAEALLYCHSKKVIHRDIKPENLLLGSNGELKIADFGWSVHAPSSRRTTLCGTLDYLPPEMIEGRMHDETVDLWSLGVLCYEFLVGKPPFETDTHQETYRRISKVEFQYPPYVSEEARDLVSKLLKHNPNHRLPLKGVLEHPWIIKNSQLKKKDEPLPGAQ
- AurA activation, as determined by autophosphorylation of the activation loop at threonine 295 of AurA with antibody recognizing phospho-T295 [1]: RanGTP-induced AurA activation in TPX2-depleted egg extracts could be rescued by adding purified wild-type TPX2
- AurA activation, as determined by autophosphorylation of the activation loop at threonine 295 of AurA with antibody recognizing phospho-T295 [2]: AurA activation was either completely lacking or slightly enhanced compared to the TPX2-depleted egg extract
